Measured values: US20230285520A1, “DEVELOPMENT OF A NEW ENGINEERED TOBACCO ETCH VIRUS (TEV) PROTEASE ACTIVABLE IN THE CYTOSOL OR SECRETORY PATHWAY” (Università Cattolica del Sacro Cuore, priority 2020, published 2023)

Tests used:
[1] = tested on: hippocampal organotypic sections; experiment: ERK phosphorylation in hippocampal organotypic sections treated with purified mature BDNF; format: cell-based, rat; conditions: hippocampal organotypic sections treated for 30 minutes, Western blot
Experimental: HEK293T cells were transfected (PEI MAX—Polysciences, Inc.) with the plasmids codifying for unica-secTEV (pcDNA-unica-secTEV-SV5) and pro-TEVcs-BDNF (HA-pro-TEVcs-BDNF-Flag-SEP) and left for 24 h at 37° C., 5% CO2.
After 24 h the cells were treated for 1-3 h with rapamycin (1 μM) or DMSO as control. The cells were washed with cold PBS and lysed with lysis buffer containing rapamycin (1 μM) or DMSO. The lysate was immunoprecipitated with FLAG-M2-beads for 1 h and subsequently FLAG peptide (sigma F3290-4 mg) was added. After 1 h the beads were removed by Micro bio-spin Colums®—Bio-Rad. The eluted protein was kept at −20° C. Once quantified by commercially available ELISA kits its biological effect was tested as described in FIG. 6.
In order to test the biological activity of mature BDNF obtained with the chemogenetic strategy in neurons, BDNF was immunoprecipitated and purified by HEK293T cells co-transfected with unica-secTEV and treated with rapamycin. […] In fact, BDNF biochemical features, including the positive charges on its surface, prevent the spreading thereof and keep its action locally at level of synapses. This feature obstructs even the effectiveness of injections of purified BDNF as therapeutic strategy. […]

TMD-TEVcs-tTA = TMD-TEVcs-tTA / tetO-EGFP reporter expression in HEK293T cells; format: cell-based; conditions: control cells exposed to vehicle, absence of activator
Text: A system was used based upon the expression of a fluorophore after nuclear translocation of a transactivator sequestered on the plasmatic membrane by a TEV recognition site (TEVcs).
In particular, the inventors made to express in HEK293T cells a “tetracycline operator EGFP conjugated” (tetO-EGFP) and a synthetic protein consisting of a transactivator controlled by tetracycline (tTA), bound to a transmembrane domain (TMD) through a TEV recognition site (TEVcs) (TMD-TEVcs-tTA) (FIG. 7).

[2] = target: pro-TEVcs-BDNF (HA-pro-TEVcs-BDNF-Flag-SEP), P23560
[3] = tested on: pro-TEVcs-BDNF human recombinant; experiment: Cleavage/maturation of pro-TEVcs-BDNF in transfected HEK293T cells (Western blot); format: cell-based
[4] = mutations I138T, S153N and T180A; relative to wild-type TEV; cited from earlier work
pro-TEVcs-BDNF = experiment: In vitro protease test after immunoprecipitation of pro-TEVcs-BDNF and unica-TEV; format: biochemical; conditions: in presence of rapamycin; SDS-PAGE
CFP-TEVcs-YFP = experiment: Cleavage of CFP-TEVcs-YFP substrate in the cytosol of transfected HEK293T cells (Western blot); format: cell-based
Text: Enzymatic Activity of Unica-TEV in Vital Cells • 13) Use CFP-TEVcs-YFP synthetic recombinant protein as substrate;
This artificial construct has two fluorophores conjugated by the cleavage sequence recognized by TEV (TEVcs). AntiGFP (Biolegend) antibody was used to verify cleavage of CFP-TEVcs-YFP by unica-TEV.
In order to do it, HEK293T cells were transfected (PEI MAX—Polysciences, Inc.) with the plasmids codifying constitutively active wild-type TEV (pcDNA-TEV), and engineered TEV with UniRapR (pcDNA-unica-TEV) and left to grow for 24-48 h at 37° C., 5% CO2.
For both of them, CFP-TEVcs-YFP was co-transfected.
After 24h the cells were treated for 1-3 h with rapamycin (1 μM) or DMSO as control. The cells were washed with cold PBS and lysed with lysis buffer containing rapamycin (1 μM) or DMSO. 10% of the volume of samples was prepared (addition of 2× Laemmli protein sample buffer+boiling for 5 min) for the electrophoretic analysis on gel of SDS-polyacrylamide.

TrkB = experiment: ERK phosphorylation in cells expressing pro-TEVcs-BDNF, unica-secTEV and TrkB-mGFP; format: cell-based; conditions: chemogenetic activation of unica-secTEV; co-expressed TrkB-mGFP
Text: In order to evaluate if mature BDNF obtained after activation of unica-secTEV was able to bind and activate its TrkB endogenous target receptor, pro-TEVcs-BDNF was expressed, unica-secTEV with TrkB-mGFP.

CA1 pyramidal neurons = experiment: Dendritic spines of CA1 pyramidal neurons in transfected organotypic hippocampal sections; format: cell-based, rats; conditions: unica-secTEV activated with rapamycin for 24 h
Text: In order to test the biological activity of mature BDNF obtained with the chemogenetic strategy in neurons, BDNF was immunoprecipitated and purified by HEK293T cells co-transfected with unica-secTEV and treated with rapamycin. […] In fact, BDNF biochemical features, including the positive charges on its surface, prevent the spreading thereof and keep its action locally at level of synapses. This feature obstructs even the effectiveness of injections of purified BDNF as therapeutic strategy. Since the extracellular application could involve both sides, even the exogenous application of purified BDNF is not useful in sectioning the roles of pre- and postsynaptic release. […] These gene approaches involve the deletion both of proBDNF and BDNF, the contribution of each form to the observed effect cannot be distinguished. The chemogenetic strategy developed by the inventors to control the protein cleavage is useful even to evaluate the specific autocrine action of BDNF inducible intracellular maturation in CA1 pyramidal neurons. In order to monitor BDNF specific effects in the postsynaptic neurons, organo-typical sections containing the hippocampus of rats with unica-secTEV, pro-TEVcs-BDNF and dsRed2 were transfected ballistically to display in a fluorescent way CA1 pyramidal neurons. After 48 h, unica-secTEV with rapamycin was activated for 24 h.

B1: purified mature BDNF: mature BDNF immunoprecipitated and purified from HEK293T cells co-transfected with unica-secTEV and treated with rapamycin (protein, UniProt P23560 129-247, looked up)
Neurotrophic factor BDNF: HSDPARRGELSVCDSISEWVTAADKKTAVDMSGGTVTVLEKVPVSKGQLKQYFYETKCNPMGYTKEGCRGIDKRHWNSQCRTTQSYVRALTMDSKKRIGWRFIRIDTSCVCTLTIKRGR
modifications: Neurotrophic factor BDNF
notes: mature BDNF immunoprecipitated and purified from HEK293T cells co-transfected with unica-secTEV and treated with rapamycin
[1]
  ERK phosphorylation: significant increase in ERK phosphorylation signals
[1]; listed as mature BNDF
  ERK phosphorylation: induces a phosphorylation of ERK protein

B2: unica-TEV without linker: unica-TEV construct with no linker (NL) between TEV and UniRapR (protein)
chain: GESLFKGPRDYNPISSTICHLTNESDGHTTSLYGIGFGPFIITNKHLFRRNNGTLLVQSLHGVFKVKNTTTLQQHLIDGRDMIIIRMPKDFPPFPQKLKFREPQREERICLVTTNFQTKSTCVVHYTGMLEDGKKFDSSRDRNKPFKFMLGKQEVIRGWEEGVAQMSVGQRAKLTISPDYAYGATGHGSGSGSGVKDLLQAWDLYYHVFRRISGPPGPGSGLWHEMWHEGLEEASRLYFGERNVKGMFEVLEPLHAMMERGPQTLKETSFNQAYGRDLMEAQEWCRKYMKSGSSGGSGSGIIPPHATLVFDVELLKLEMSSMVSDTSCTFPSSDGIFWKHWIQTKDGQCGSPLVSTRDGFIVGIHSASNFTNTNNYFTSVPKNFMELLTNQEAQQWVSGWRLNADSVLWGGHKVFMVKPEEPFQPVKEATQLMN
TMD-TEVcs-tTA
  EGFP signal (background): substantially lower
TMD-TEVcs-tTA; listed as NL construct
  EGFP signal (background): almost wholly absent

B3: unica-TEV (unimolecular chemical-activatable TEV) (protein)
chain: GESLFKGPRDYNPISSTICHLTNESDGHTTSLYGIGFGPFIITNKHLFRRNNGTLLVQSLHGVFKVKNTTTLQQHLIDGRDMIIIRMPKDFPPFPQKLKFREPQREERICLVTTNFQTKSGGSTCVVHYTGMLEDGKKFDSSRDRNKPFKFMLGKQEVIRGWEEGVAQMSVGQRAKLTISPDYAYGATGHGSGSGSGVKDLLQAWDLYYHVFRRISGPPGPGSGLWHEMWHEGLEEASRLYFGERNVKGMFEVLEPLHAMMERGPQTLKETSFNQAYGRDLMEAQEWCRKYMKSGSSGGSGSGIIPPHATLVFDVELLKLEGGSMSSMVSDTSCTFPSSDGTFWKHWIQTKDGQCGNPLVSTRDGFIVGIHSASNFTNTNNYFASVPKNFMELLTNQEAQQWVSGWRLNADSVLWGGHKVFMVKPEEPFQPVKEATQLMN
[2]
  in vitro protease test after immunoprecipitation of both proteins, with rapamycin, SDS-PAGE: SDS-PAGE migration of pro-peptide was noted

B4: unica-TEV: engineered single-chain TEV protease with uniRapR domain inserted between S120 and M121, rapamycin-activable; SEQ ID Nr. 5 (protein)
chain: GESLFKGPRDYNPISSTICHLTNESDGHTTSLYGIGFGPFIITNKHLFRRNNGTLLVQSLHGVFKVKNTTTLQQHLIDGRDMIIIRMPKDFPPFPQKLKFREPQREERICLVTTNFQTKSGGSTCVVHYTGMLEDGKKFDSSRDRNKPFKFMLGKQEVIRGWEEGVAQMSVGQRAKLTISPDYAYGATGHGSGSGSGVKDLLQAWDLYYHVFRRISGPPGPGSGLWHEMWHEGLEEASRLYFGERNVKGMFEVLEPLHAMMERGPQTLKETSFNQAYGRDLMEAQEWCRKYMKSGSSGGSGSGIIPPHATLVFDVELLKLEGGSMSSMVSDTSCTFPSSDGTFWKHWIQTKDGQCGNPLVSTRDGFIVGIHSASNFTNTNNYFASVPKNFMELLTNQEAQQWVSGWRLNADSVLWGGHKVFMVKPEEPFQPVKEATQLMN
modifications: Peptide sequence of unica-TEV engineered protease (1)..(440)
[3]; HEK293T, cytosolic localization of TEV protease
  splitting of pro-TEVcs-BDNF in living cells by cytosolic protease: nor unica-TEV in presence of rapamycin, nor an active mutating form of TEV, split pro-TEVcs-BDNF
[4]
  kcat/Km ratio unica-TEV/wtTEV: 2.81
pro-TEVcs-BDNF
  cleavage of pro-TEVcs-BDNF in vitro: SDS-PAGE migration of pro-peptide was noted
CFP-TEVcs-YFP; in absence of rapamycin
  cleavage of CFP-TEVcs-YFP (background activity): absence of cleavage background
CFP-TEVcs-YFP; in presence of rapamycin
  cleavage of CFP-TEVcs-YFP: identical cleavage profile

B5: unica-secTEV: unica-TEV with N-terminal secretion signal and mutations for activity in the secretory pathway; SEQ ID Nr. 6 (protein)
chain: QGAQGESLFKGPRDYNPISSTICHLTQESDGHTTSLYGIGFGPFIITNKHLFRRNNGTLLVQSLHGVFKVKNTTTLQQHLIDGRDMIIIRMPKDFPPFPQKLKFREPQREERICLVTTNFQTKSGGSTCVVHYTGMLEDGKKFDSSRDRNKPFKFMLGKQEVIRGWEEGVAQMSVGQRAKLTISPDYAYGATGHGSGSGSGVKDLLQAWDLYYHVFRRISGPPGPGSGLWHEMWHEGLEEASRLYFGERNVKGMFEVLEPLHAMMERGPQTLKETSFNQAYGRDLMEAQEWCRKYMKSGSSGGSGSGIIPPHATLVFDVELLKLEGGSMSSMVSDTSSTFPSSDGTFWKHWIQTKDGQCGNPLVSTRDGFIVGIHSASNFGNTNNYFASVPKNFMELLTNQEAQQWVSGWRLNADSVLWGGHKVFMSKPEEPFQPVKEATQLMNEGGLE
modifications: left off: small tags and cut ends
[3]; in absence of rapamycin, secretory pathway
  cleavage of pro-TEVcs-BDNF (background activity): absence of cleavage background
[3]; in presence of rapamycin, secretory pathway, Western blot
  maturation (cleavage) of pro-TEVcs-BDNF in vital cells: 41-kDa band was noted designating BDNF maturation in the living cells and capability of unica-secTEV to make pro-TEVcs-BDNF to mature in vital cells
TrkB
  ERK phosphorylation: clear increase in the kinase phosphorylation
CA1 pyramidal neurons
  morphology of dendritic spines: significant changes in the morphology of dendritic spines
  volume of heads of dendritic spines: increase in the volume of heads of dendritic spines
CA1 pyramidal neurons; co-transfected pro-TEVcs-BDNF and dsRed2
  density of dendritic spines: significant increase in the density of dendritic spines
